In the supplement of paper PMC10567573:

B1: DYRK1B (parent)
chain: ARKYFERLPGGGWTLRRTKELRKD

Variants of: B1
Assay: protein stability index of a GFP-peptide fusion (GPS, HEK-293T) (PSI 1-6); higher = more stable
Conditions: c terminus: a fixed tail appended
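Also: lentivirally expressed fusions sorted by FACS into six bins by GFP to DsRed ratio, PSI derived from sequencing read proportions per bin multiplied by bin number.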

Variant	protein stability index
ARKYFERLPFGGWTLRRTKELRKD [G10F]	2.63
ARKYFERLPDGGWTLRRTKELRKD [G10D]	4.16
ARKYFERLPIGGWTLRRTKELRKD [G10I]	2.38
ARKYFERLPRGGWTLRRTKELRKD [G10R]	3.75
ARKYFERLPTGGWTLRRTKELRKD [G10T]	3.19
ARKYFERLPGGGWTLRRTKELRQD [K23Q]	2.83
ARKYFERLPGGGWTLRRTKELRID [K23I]	2.58
ARKYFESLPGGGWTLRRTKELRKD [R7S]	3.23
ARKYFEVLPGGGWTLRRTKELRKD [R7V]	3.33
ARKYFENLPGGGWTLRRTKELRKD [R7N]	2.83
ARKYFEYLPGGGWTLRRTKELRKD [R7Y]	3.25
ARKYFEWLPGGGWTLRRTKELRKD [R7W]	2.81
ARKYFEHLPGGGWTLRRTKELRKD [R7H]	3.08
ARKYFEELPGGGWTLRRTKELRKD [R7E]	4.31
ARKYFEFLPGGGWTLRRTKELRKD [R7F]	2.41
ARKYFELLPGGGWTLRRTKELRKD [R7L]	2.77
ARKYSERLPGGGWTLRRTKELRKD [F5S]	4.35
ARKYIERLPGGGWTLRRTKELRKD [F5I]	2.91
ARKYRERLPGGGWTLRRTKELRKD [F5R]	3.58
ARKYEERLPGGGWTLRRTKELRKD [F5E]	4.26
ARKYQERLPGGGWTLRRTKELRKD [F5Q]	3.71
ARKYDERLPGGGWTLRRTKELRKD [F5D]	3.84
ARKYMERLPGGGWTLRRTKELRKD [F5M]	2.98
ARFYFERLPGGGWTLRRTKELRKD [K3F]	1.98

Variant	protein stability index
ARSYFERLPGGGWTLRRTKELRKD [K3S]	3.55
AREYFERLPGGGWTLRRTKELRKD [K3E]	4.13
ARRYFERLPGGGWTLRRTKELRKD [K3R]	3.9
ARAYFERLPGGGWTLRRTKELRKD [K3A]	3.79
ARYYFERLPGGGWTLRRTKELRKD [K3Y]	2.58
ARCYFERLPGGGWTLRRTKELRKD [K3C]	3.24
ARWYFERLPGGGWTLRRTKELRKD [K3W]	2.6
ARTYFERLPGGGWTLRRTKELRKD [K3T]	3.55
ARPYFERLPGGGWTLRRTKELRKD [K3P]	2.96
ARMYFERLPGGGWTLRRTKELRKD [K3M]	3.12
QRKYFERLPGGGWTLRRTKELRKD [A1Q]	3.7
HRKYFERLPGGGWTLRRTKELRKD [A1H]	3.66
DRKYFERLPGGGWTLRRTKELRKD [A1D]	4.11
LRKYFERLPGGGWTLRRTKELRKD [A1L]	2.36
PRKYFERLPGGGWTLRRTKELRKD [A1P]	2.89
TRKYFERLPGGGWTLRRTKELRKD [A1T]	3.31
IRKYFERLPGGGWTLRRTKELRKD [A1I]	2.47
ARKYFERLPGGGWTLVRTKELRKD [R16V]	4.2
ARKYFERLPGGGWTLSRTKELRKD [R16S]	3.17
ARKYFERLPGGGWTLKRTKELRKD [R16K]	3.48
ARKYFERLPGGGWTLTRTKELRKD [R16T]	3.5
ARKYFERLPGGGETLRRTKELRKD [W13E]	4.05
ARKYFERLPGGGTTLRRTKELRKD [W13T]	3.36
ARKYFERLPGGGFTLRRTKELRKD [W13F]	3.47

Variant	protein stability index
ARKYFERLPGGGDTLRRTKELRKD [W13D]	3.59
ARKYFERLPGGGKTLRRTKELRKD [W13K]	3.77
ARKYFERLPGGGMTLRRTKELRKD [W13M]	3.54
ARKYFERLPGGGCTLRRTKELRKD [W13C]	4.61
ARKYFERLPGGGHTLRRTKELRKD [W13H]	2.52
ARKYFERLPGGGWTLRRTKEERKD [L21E]	4.62
ARKYFERLPGGGWTLRRTKEVRKD [L21V]	3.7
ARKYFERLPGGGWTLRRTKESRKD [L21S]	4.45
ARKYFERLPGGGWTLRRTKEKRKD [L21K]	3.73
ARKYFERLPGGGWTLRRTKEPRKD [L21P]	3.26
ARKYFERLPGGGWTLRRTKECRKD [L21C]	4.41
ARKYFERLPGGGWTLRRTKEQRKD [L21Q]	3.88
ARKYFERLIGGGWTLRRTKELRKD [P9I]	2.13
ARKYFERLQGGGWTLRRTKELRKD [P9Q]	3.67
ARKYFERLEGGGWTLRRTKELRKD [P9E]	3.41
ARKYFERLFGGGWTLRRTKELRKD [P9F]	1.87
ARKYFERLHGGGWTLRRTKELRKD [P9H]	2.48
ARKYFERLYGGGWTLRRTKELRKD [P9Y]	1.9
ARKYFERLNGGGWTLRRTKELRKD [P9N]	1.97
ARKYFERLDGGGWTLRRTKELRKD [P9D]	4.24
ARKYFERLLGGGWTLRRTKELRKD [P9L]	2.43
ARKYFERLPGGGWTLRRTKELFKD [R22F]	3.59
ARKYFERLPGGGWTLRRTKELAKD [R22A]	4.14
ARKYFERLPGGGWTLRRTKELKKD [R22K]	3.36

Variant	protein stability index
ARKYFERLPGGGWTLRRTKELMKD [R22M]	3.88
ARKYFERLPGGGWTLRRTKELPKD [R22P]	3.48
ARKYFERLPGGFWTLRRTKELRKD [G12F]	2.93
ARKYFERLPGGLWTLRRTKELRKD [G12L]	2.57
ARKYFERLPGGTWTLRRTKELRKD [G12T]	2.98
ARKYFERLPGGDWTLRRTKELRKD [G12D]	4.15
ARKYFERLPGGVWTLRRTKELRKD [G12V]	2.15
ARKYFERLPGGGWTLRRPKELRKD [T18P]	3.57
ARKYFERLPGGGWTLRRMKELRKD [T18M]	3.88
ARKYFERLPGGGWTLRRDKELRKD [T18D]	4.05
ARKYFERLPGGGWTLRRVKELRKD [T18V]	3.69
ARKYFERLPGGGWTLRRIKELRKD [T18I]	3.93
ARKYFERLPGGGWTLRRYKELRKD [T18Y]	2.26
ARKYFERYPGGGWTLRRTKELRKD [L8Y]	4.07
ARKYFERHPGGGWTLRRTKELRKD [L8H]	3.32
ARKYFERDPGGGWTLRRTKELRKD [L8D]	4.19
ARKYFERFPGGGWTLRRTKELRKD [L8F]	2.57
ARKYFEREPGGGWTLRRTKELRKD [L8E]	3.71
ARKYFERRPGGGWTLRRTKELRKD [L8R]	3.25
ARKYFERTPGGGWTLRRTKELRKD [L8T]	4.18
ARKYFERWPGGGWTLRRTKELRKD [L8W]	2.13
ARKYFERCPGGGWTLRRTKELRKD [L8C]	3.18
ARKYFERIPGGGWTLRRTKELRKD [L8I]	3.5
ARKYFERSPGGGWTLRRTKELRKD [L8S]	5.45

Variant	protein stability index
ARKYFQRLPGGGWTLRRTKELRKD [E6Q]	2.55
ARKYFNRLPGGGWTLRRTKELRKD [E6N]	3.07
ARKYFYRLPGGGWTLRRTKELRKD [E6Y]	3.62
ARKYFHRLPGGGWTLRRTKELRKD [E6H]	3.34
ARKYFIRLPGGGWTLRRTKELRKD [E6I]	3.38
ARKYFSRLPGGGWTLRRTKELRKD [E6S]	3.21
ARKYFWRLPGGGWTLRRTKELRKD [E6W]	2.67
ARKYFRRLPGGGWTLRRTKELRKD [E6R]	4.86
ARKYFVRLPGGGWTLRRTKELRKD [E6V]	3.35
ARKYFLRLPGGGWTLRRTKELRKD [E6L]	2.64
ARKYFCRLPGGGWTLRRTKELRKD [E6C]	3.85
ARKYFKRLPGGGWTLRRTKELRKD [E6K]	2.78
ARKYFDRLPGGGWTLRRTKELRKD [E6D]	3.69
ARKYFFRLPGGGWTLRRTKELRKD [E6F]	3.37
ARKYFERLPGGGWSLRRTKELRKD [T14S]	3.34
ARKYFERLPGGGWYLRRTKELRKD [T14Y]	3.01
ARKYFERLPGGGWQLRRTKELRKD [T14Q]	2.9
ARKYFERLPGGGWKLRRTKELRKD [T14K]	3.34
ARKYFERLPGGGWVLRRTKELRKD [T14V]	2.91
ARKVFERLPGGGWTLRRTKELRKD [Y4V]	3.44
ARKFFERLPGGGWTLRRTKELRKD [Y4F]	2.91
ARKDFERLPGGGWTLRRTKELRKD [Y4D]	4.48
ARKSFERLPGGGWTLRRTKELRKD [Y4S]	3.37
ARKWFERLPGGGWTLRRTKELRKD [Y4W]	2.2

Variant	protein stability index
ARKLFERLPGGGWTLRRTKELRKD [Y4L]	3.14
ARKAFERLPGGGWTLRRTKELRKD [Y4A]	2.7
ARKNFERLPGGGWTLRRTKELRKD [Y4N]	4.17
ARKEFERLPGGGWTLRRTKELRKD [Y4E]	3.76
ARKRFERLPGGGWTLRRTKELRKD [Y4R]	4.29
ARKPFERLPGGGWTLRRTKELRKD [Y4P]	4.82
ARKQFERLPGGGWTLRRTKELRKD [Y4Q]	3.34
ARKIFERLPGGGWTLRRTKELRKD [Y4I]	2.87
ARKMFERLPGGGWTLRRTKELRKD [Y4M]	3.21
ARKCFERLPGGGWTLRRTKELRKD [Y4C]	3.29
ARKYFERLPGGGWTHRRTKELRKD [L15H]	3.85
ARKYFERLPGGGWTPRRTKELRKD [L15P]	2.7
ARKYFERLPGGGWTRRRTKELRKD [L15R]	3.34
ARKYFERLPGGGWTTRRTKELRKD [L15T]	3.35
ARKYFERLPGGGWTIRRTKELRKD [L15I]	3.22
ARKYFERLPGGGWTQRRTKELRKD [L15Q]	3.65
ARKYFERLPGGGWTKRRTKELRKD [L15K]	3.15
ARKYFERLPGGGWTARRTKELRKD [L15A]	3.78
ARKYFERLPGGGWTYRRTKELRKD [L15Y]	3.73
ARKYFERLPGGGWTNRRTKELRKD [L15N]	2.95
ARKYFERLPGGGWTVRRTKELRKD [L15V]	4.02
ALKYFERLPGGGWTLRRTKELRKD [R2L]	2.96
AKKYFERLPGGGWTLRRTKELRKD [R2K]	4.25
AFKYFERLPGGGWTLRRTKELRKD [R2F]	3.89

Variant	protein stability index
AIKYFERLPGGGWTLRRTKELRKD [R2I]	2.83
ANKYFERLPGGGWTLRRTKELRKD [R2N]	3.55
AHKYFERLPGGGWTLRRTKELRKD [R2H]	2.73
AEKYFERLPGGGWTLRRTKELRKD [R2E]	4.64
ARKYFERLPGGGWTLRRTKALRKD [E20A]	4.5
ARKYFERLPGGGWTLRRTKLLRKD [E20L]	3.23
ARKYFERLPGGGWTLRRTKFLRKD [E20F]	3.57
ARKYFERLPGGGWTLRRTKVLRKD [E20V]	3.47
ARKYFERLPGGGWTLRRTKRLRKD [E20R]	3.3
ARKYFERLPGGGWTLRRTKDLRKD [E20D]	3.65
ARKYFERLPGGGWTLRRTKILRKD [E20I]	2.04
ARKYFERLPGGGWTLRRTKHLRKD [E20H]	1.79
ARKYFERLPGGGWTLRRTKSLRKD [E20S]	3.34
ARKYFERLPGGGWTLRRTKYLRKD [E20Y]	3.6
ARKYFERLPGGGWTLRRTKGLRKD [E20G]	4.17
ARKYFERLPGGGWTLRQTKELRKD [R17Q]	2.83
ARKYFERLPGGGWTLRITKELRKD [R17I]	2.03
ARKYFERLPGGGWTLRWTKELRKD [R17W]	2.35
ARKYFERLPGGGWTLRETKELRKD [R17E]	3.46
ARKYFERLPGGGWTLRLTKELRKD [R17L]	2.43
ARKYFERLPGGGWTLRPTKELRKD [R17P]	2.75
ARKYFERLPGGGWTLRSTKELRKD [R17S]	3.35
ARKYFERLPGGGWTLRGTKELRKD [R17G]	3.6
ARKYFERLPGTGWTLRRTKELRKD [G11T]	3.46

Variant	protein stability index
ARKYFERLPGIGWTLRRTKELRKD [G11I]	2.79
ARKYFERLPGSGWTLRRTKELRKD [G11S]	2.49
ARKYFERLPGWGWTLRRTKELRKD [G11W]	2.82
ARKYFERLPGVGWTLRRTKELRKD [G11V]	2.48
ARKYFERLPGCGWTLRRTKELRKD [G11C]	3.26
ARKYFERLPGGGWTLRRTKELRKA [D24A]	3.75
ARKYFERLPGGGWTLRRTKELRKK [D24K]	3.07
ARKYFERLPGGGWTLRRTKELRKW [D24W]	1.91
ARKYFERLPGGGWTLRRTKELRKC [D24C]	2.7
ARKYFERLPGGGWTLRRTKELRKH [D24H]	2.54
ARKYFERLPGGGWTLRRTKELRKR [D24R]	3
ARKYFERLPGGGWTLRRTKELRKG [D24G]	3.24
ARKYFERLPGGGWTLRRTKELRKQ [D24Q]	3.68
ARKYFERLPGGGWTLRRTKELRKE [D24E]	3.63
ARKYFERLPGGGWTLRRTWELRKD [K19W]	2.35
ARKYFERLPGGGWTLRRTFELRKD [K19F]	3.01
ARKYFERLPGGGWTLRRTMELRKD [K19M]	2.73
ARKYFERLPGGGWTLRRTIELRKD [K19I]	2.87
ARKYFERLPGGGWTLRRTPELRKD [K19P]	3.97
ARKYFERLPGGGWTLRRTDELRKD [K19D]	4.88
